The values that follow come from publication PMC6016246, “Cytokinin Signaling in Mycobacterium tuberculosis” (mBio, 2018).

In data set [1] the target is T1, Rv0078 (Mycobacterium tuberculosis, UniProt O53623 1-201).
T1 sequence: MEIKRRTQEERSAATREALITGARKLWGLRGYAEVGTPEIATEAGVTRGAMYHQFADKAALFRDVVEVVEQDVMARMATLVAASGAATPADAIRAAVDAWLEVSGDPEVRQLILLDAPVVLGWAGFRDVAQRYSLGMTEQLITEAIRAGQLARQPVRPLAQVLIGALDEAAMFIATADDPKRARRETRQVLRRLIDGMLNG
Briefly: ITC; […], room temperature 30 min; […], buffer not stated. The note with it: protein: recombinant; tags: C-terminal His6; chain copies: 4.

Data set [2] deals with the molecule itself. The data set is described as follows: crystal structure; DNA-free Rv0078, C2 space group crystals, sitting-drop vapor diffusion at 20°C, 0.1 M sodium cacodylate pH 6.4, 1.3 M lithium sulfate; 1.85 Å.
Data set [3] addresses T1, Rv0078. The data set is described as follows: crystal structure; […], room temperature 30 min; […], buffer not stated. The following applies: protein: recombinant; tags: C-terminal His6; chain copies: 4; blunt.

B1: +13/-8 DNA probe (ITC) (dsDNA)
DNA 1: TTACAAGCAGACTGCCGGTAA
DNA 2: TTACCGGCAGTCTGCTTGTAA
Regarding B1, the Kd with Rv0078 [1] is 357 nM.

B2: Rv0078-His6 (TetR-like transcriptional repressor Rv0078) (natural protein)
chain: T1 sequence
notes: also called LoaR; EthR2; not shown: His6, C-terminal, kept
B2: in data set [2], the “stoichiometry N” value worked out at 2.

B3: 23-mer operator duplex (dsDNA)
DNA 1: TTTACAAGCAGACTGCCGGTAAC
DNA 2: GTTACCGGCAGTCTGCTTGTAAA
Turning to B3, the binding result in the data set with Rv0078 [3] is “binds”.
